Target: AmHv1, Hv1-type proton channel of Acropora millepora, tagged with fluorescent proteins (Acropora millepora)
Experiment: FRET or BRET; spectral FRET (sensitized emission of the acceptor) in HEK293 cells co-expressing mCerulean-AmHv1 (donor) and mCitrine-AmHv1 (acceptor); apparent FRET efficiency against Id/Ia from 134 cells, fitted to a model of random assembly into a dimer

In the case of “AmHv1, Hv1-type proton channel of Acropora millepora, tagged with fluorescent proteins (natural protein)”, the stoichiometry N is reported as 2.

From PMC8346283
